From the nanobody polyreactivity screen of Harvey et al. (2022)

Test: yeast display, Sf9 membrane polyspecificity reagent, FACS + sequencing; frameworks hold sequencing errors
Summary of the method: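 After 36–48 hours of galactose induction, yeast (Saccharomyces cerevisiae BJ5465) displaying a synthetic nanobody library were stained at 4 °C for 1 hour with 10% biotinylated, detergent-solubilized Sf9 membrane reagent. Streptavidin microbeads enriched the stained cells before FACS sorting into low and high (top ~1%) gates on anti-HA and streptavidin fluorescence. Each clone's polyreactivity label reflects its gate of origin.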

Row | Sequence | polyreactivity (PSR sort gate)
1 | QVQLVESGGGLVQAGGSLRLSCAASGSTFVYYAMGWYRQAPGKERELVAAISYSGGRTYYADSVKGRFTISRDNAKNTVYLQMNSLKQEDTAVYYCAAAYVKFYGYSAEYDYWGQGTQVTVSS | low polyreactivity
2 | QVQLVESGGGLVQAGGSLRLSCAASGSTFERYAMGWYRQAPGKKGSWLPYADSVKGRFTISRDNAKNTVYLQMNSLKPEDTAVYYCNAERYSPTLNLDRGWEYDYWGQGTQVTVSS | low polyreactivity
3 | QDQLEESGGGLVQAGGSLRLSCAASGSTFSYYTMGWYRQGPGKETELVAAISSGGSTYADSVKGRFTISRDNAKYTVYLQKNSLKPEDTAVYYCAVVGFDYGPSQALDDWGQGTQVTVSS | low polyreactivity
4 | QVQLEESGGGLVQAGGSLRLSCAASGLIFGHNAMGWYRQAPGKERELVAAISRSGTSTYYADSVKGRFTISRDNAKNTVYLQMNSLKPEDNAVYYCAAENYYTAGGSGPIYRRVYWGQGTQVTVSS | low polyreactivity
5 | QVQLVESGGGLVQAGGSLRLSCAASGRIYGANTMGWYRQAPGKERELVAAISWRGTSTYADSVKGRFSISRDNAKNTVYLQMNSLKPEDTAVYYCAARRRGWPQFDYWGQGTQVTVSS | high polyreactivity
6 | QVQLVESGGGLVQAGGSLRLSCAASGRIFKSYAMGWYRPAPGKERELVAAINWSGGSTYYADSVKGRFTISRDTAKNTVYLQMNSLKPEDTAVYYCNALYAVRSYDSWGQGTQVTVSS | high polyreactivity
7 | QVQLVESGGCLVQAGGSLRLSCAASGFTFYAYTMGWYRQAPGKERELVAAITKTGSRTYYADSVKGRFTISRDNAKNTVYLQMNSLKPEDTAVYYCAAASYIRVKGISRYDSWGQGTQVTVSS | high polyreactivity
8 | QVQLVESGGGLVQAGGSLRLSCAASGSIFWRNMGWYRQAPGKERELVAAISYGSVSTYYADSVKGRFTISRDNAKNTVYLQMNSLKPEDTAVYYCAATLPGWYNEHDSWGLGTQVTVSS | low polyreactivity
9 | QVQLVESGGGLVQAGRSLRLSCAASGSTFYAYTMGWYRKAPGKERELVAGISRRGGTTYYADSVKGRFTISRDNAKNTVYLQMNSLKPEDTAVYHCATRSWELGDYWGQGTQVTVSS | low polyreactivity
10 | QVQLVESGGGLVQAGGSLRLSCAASGRTFTGYAMGWYRQAPGKERELVAAITSNGARTYYADSVKGRFTISRDNAKNTVYLQMNSLKPEDTAVYYCNRVRVYTHTAWGDDYWGQGTQVTVSS | low polyreactivity
11 | QVQLVESGGGLVQAGGSLRLSCAASGFTFSGYDMGWSRQAPGKERELVAGISSGGVSTTYADSVKGRFTISRDNAKNTVYLQMNSRKPEDTAVYYCNAEWTSFDWGQGTQVTVSS | low polyreactivity
12 | QVQLEESGGGLVQAGGSLRLSCAASGSTFVYNPMGWYRQAPGKETELVAVITYRGGRTYSADSVKGRFTISRDYAKNSVYLQMNSLKPEDTAVYYCAKRVYGSKVRGYDYWGQGTQVTVSS | high polyreactivity
13 | QVQLVESGGGLVQAGGSLRVSCAASGRTFRYYAMGWYRQAPGKERELVASISDGGSTNYADSVKGRFTISRDNAKNTVYLQMNSQKPEDTAVYYCNAKAYVWYLYDEFGYWGQGTQVTVSS | low polyreactivity
14 | QDQLVESGGGLVQAGGSLRLSCAASGSIFVRYAMGWYRQAPGKERELVAAITSSAGYTYYADSVKGRFTISRDNAKNTVNLQMNSLKPEDTAVYYCAAVRYDASKFYYWGAGTQVTVSS | high polyreactivity
15 | QVQLVESGGGLVQAGGSLRLSCAASGRICKRNAMGWYRQAPGKERELVAAITWSGGSTYYADSVKGRFTISRDNAKNTVYLQMNSLKPEDTAVYYCAALRVQGDYDYWGQGTQVTVSS | high polyreactivity
16 | QVQLVESGGGLVQAGGSLRLSCAASGSIFFLYAMGWYRQAPGKEREFVAAITGTADSTYYADSVKGRFTISRDDAKNTVYLQMNSLKPEDTAVYYCATDYWSSVKLDDYWGQGTQVTVSS | low polyreactivity

Row | Sequence | polyreactivity (PSR sort gate)
17 | QVQLVESGGGLVQAGGSLRLSCAASGIIFADYAMGWYIQAPGKERELVAAISTSGGSTYYADSVKGRFTISRDNAKNPVYLQMNSLKPEDTAVYYCNAVYYTSYSGYQFVYEYDYWGQGTQVTVSS | low polyreactivity
18 | QVQLVESGGGLVQAGGSLRLICAASGSIFTKYAMVWYRQAPGKERELVAAITWSGGRTYYADSVKGRYTISRDNAKNTVYLQMNSLKPEDTAVYYCAAELFRQGYYYWGQGTQVTVSS | high polyreactivity
19 | QVQLVESGGGLVQAGGSLRLSCAASGRIFGHNAMGWYRQAPGKERELVAAISYRGCSTYYADSVKGRCTISRDNAKNTVYLQMNSLKPVDTAVYYCAARWNRGRYDYWGQGTEVTVSS | high polyreactivity
20 | QVQLVESGGCLVQAGGSLRLSCAASGSTFGGNAMGWYRQAPGKERELVAAITIGGRTNYADSVKGRFTISRDNAKNTVYLQMNSLKPEDTAVYYCAKDRDQWQDYWGQGSQVTVSS | low polyreactivity
21 | QVQLEESGGGLVQAGGRLRLSCAASGRIFAVNAMGWYRQAPGKERELVASITSRGGSTYYADSVYGRFTISRDNAKNTVYLQMPSLKPEDTAVDYCASPYYSLTTNDYDYSGQGTQVTVSS | high polyreactivity
22 | QVQLVESGGGLVQAGGSLRLSCAASGFTFSGYAMGWYRHAPGKERELVAAISSRGGRTYYADSVKGRFTISRDNAKNTVYLQMNSLKPEDTAVYYCAARSRRTDNSVQFDYWGQGTQVTVSS | high polyreactivity
23 | QVQLVESGGGLVQAGGSLRLSCAASGSISKINAMGWYRQAPGKERELVAAINTGDSTYYADSVKGRFTISRDNAKNTVYLKMNSLKPVDSAVYYCAAEGSPTGYDYWGQGTQVTVTS | low polyreactivity
24 | QVQLVESGGGLVQAGGSLRLSCAASGRIFSTNAMGWYRPAPGKERELVAAINWSTGSYVLRRSVKGRFTISRDTAKNTVYLQMNSLKPEDTAVYYCAATWRNPGKATQRYYYWGQGTQVTVSS | high polyreactivity
25 | QVQLVESGGGLVQAGGSLRLSCAASGRIFTGYVMGWYRQAPGKERELVAAITYTGGSTFYADSVKGRFTISRDNAKNTVYLQMNSLKPEDTAVYYCAADESPYFLDIVTYYEFDYWGQGTQVTVSS | low polyreactivity
26 | QVQLVESGGGLVQAGGSLRLSCAASGRTSILYAMGWYRQAPGKERELVATIYSGGRTYYADSVKGRFTISRDNAKNTVYLQMNSLKPEDTAVYYCAARPNATPRGQTKHYYWGQGTQVTVSS | high polyreactivity
27 | QVQLEESGGGLVQAGGTLRLSCAASGSTYVPYAMGWNRQETGKERELVSAIRRRGDSTNYADSVKGRFTISRDNAKNTVYLQMNSLKPEDTAVYYCAVRPYRSACGSVTRGAYYYWGQGTQVTVSS | high polyreactivity
28 | QVQLVESGGGLVQAGGSLRLSCAAYGRIFDNNAMGWYRQAPGKERELVAAIDWRGGSTDYADSVKGRFTISRDNAKNTVYLQMNSLKPEDTAVYYCVAGHVPYWHGNSYDYWGQGTQVTVSS | low polyreactivity
29 | QVQLVESGGGLVQAGGSLRLSCAASGSTFSVNAMGWYRQAPGKEREMVAAISSTGSTKYADSVKGRFTISRDNAKNTVYLQMNSLKPEDTAVYCAASNADYEYDPFSVWYFSPYDYWGQGTQVTVSS | low polyreactivity
30 | QVQLVESGGGLVQAGGSLRLSCAASGSTSQVNDMGWYRQAPGKERELVAAISSTGDRTYYADSVKGRFTISRDNAKNTVYLQMNSLKPEDTAVYYCNADLTSYYEEDERNDDDYWGQGTQVTVSS | low polyreactivity
31 | QVQLVESGGGLVQAGGSLRLSCAASGSTLTFNAMGWYRQAPWKERELVAAISWSDTDTYYADSVKGRFTISRDNAKNTVYLQINSLKPEDTAVYYCAATLSAYEMDYWGQGTQVTVSS | low polyreactivity
32 | QVQLVESGGGLVQAGGSLRLSCASSGFTFYKYVMGGYRQDPGKEREMVAASSRSGGSTYYADSVKGRFTISRDNAKNTVYLQMNSLIPEDTAVYSCAKDSCGAPEGPYDYWGQGTQVTVSS | high polyreactivity
